The results in this text go back to the nanobody polyreactivity screen of Harvey et al. (2022).

This data set is described as follows: yeast display, Sf9 membrane polyspecificity reagent, FACS + sequencing; frameworks hold sequencing errors. A digest of the protocol:
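Galactose induction of a Saccharomyces cerevisiae BJ5465 synthetic nanobody display library ran 36–48 hours. The cells were then stained for 1 hour at 4 °C with 10% biotinylated, detergent-solubilized Sf9 membrane reagent, pulled down on streptavidin microbeads and FACS-sorted into low and high (top ~1%) gates on expression and reagent-binding fluorescence. Labels for polyreactivity follow the gate of origin.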
For “QVQRVESGGGLVQAGGSLRLSCDASGFTFAFYAMGWYRQAPGKERELVAAITGSGGSTYYADSVKGRFTISRDNAKNTVYLQMNRLKPEDTAVYYCNTYHQFSYDYWGQGTQVTVSS”, the “polyreactivity (PSR sort gate)” value is listed as “high polyreactivity”.

“QVQRVESGGGLVQAGGSLRLSSAACGRIFSTYAMGRYRQAPGKERDLVPAIDWDGGGTYYADSVKGRFTISRDNAKNTVYLQMNSLKPEDTAVYYCAAETDLANGTSPSDYWGQGTQVTVSS”: the “polyreactivity (PSR sort gate)” value is reported as “low polyreactivity”.

As to “QVQRVESGGGLVQAGGSLRLTSAGSGLTFILNAMGWYRQAPGKEREFVAAISRSGVRTYYADSVKGRFTISRDNAKNTVYLQMNSLKPEDTAVYYCAAAAQRGSKPRVELDYWGQGSQVTVSS”, the “polyreactivity (PSR sort gate)” value was “high polyreactivity”.

As to “QVQRVESGGGLVQAGGTLRLSCAASGFIFGYYAMGWSRQAPGKERELVAAISRSGGRTYYADSVKGRFTISRANAKNTVYLQLNSLKPEDTAVYYCAKSGYQYADDMDYLGQGTQVTVSS”, the “polyreactivity (PSR sort gate)” value was “high polyreactivity”.

“QVQRVESGGGLVQEGGSLRLSCAASGLIFAIYAMGWYRQAPGKDRELVAAMRWSGASTYADSVKGRFTNSRDNAYNTVYLQMISLKREDTAVYYCAADDLLDYDYWGQGTQVTVSS”: the “polyreactivity (PSR sort gate)” value was “low polyreactivity”.

Regarding “QVQRVESGGRLVQAGGSLRLSCAASGFIFRYYAMGWYRQAPGKERELVAAISSRGGTTYYADSVKGRFTISRDNPNNTVYLQMNSLKPEDTPVDYGAAGGGRFRHGGRDYWGQGTQVTVSS”, the “polyreactivity (PSR sort gate)” value is recorded as “high polyreactivity”.

Take “QVQRVESGGVLVQAGGSLRLSCAASGGIFYYYTMGWYRQAPGKERELVAAINWSGGSTYYADSVKGRFTISRDNAKNTVYLQMNSLKPEDTAVYYCNAVYRHPVTYGYWGQGTQVTVSS”: the “polyreactivity (PSR sort gate)” value is given as “high polyreactivity”.

For “QVQRVESGRGLVHAGGRLRLSCAASGSIFTYYPMGWSRPAPGKERELVAAISYSGGTTYYADSVKGRFTISRDNAKNTVYLQMNSLKPEDTAVYYCNVDADYESKWLSVGYDYWGQGTQVTVSS”, the “polyreactivity (PSR sort gate)” value was “low polyreactivity”.

Turning to “QVQRVESGVGLVQAGGSLRLSCAASGLTFLWYAMGWYRQAPGKERELVAAITSGGRTKYADSVKGRFTISRDNAKNTVYLQMNSLKPEDTAVYYCAAYPQWWGYDYWGQGTQVTVSS”, the “polyreactivity (PSR sort gate)” value is reported as “high polyreactivity”.

For “QVQRVESGVGLVQAGGSLRLSCAASGRIFRPYAMGWFRQARGNERELVAAITYSGGSTRYADSVKGRFTLSRDNAKNTVYIQMNSLKPEDTAVYYCAADLSYQDDPRWSYDYWGQGTHVTVSS”, the “polyreactivity (PSR sort gate)” value is “high polyreactivity”.

Regarding “QVQRVESGVRLVQAGGSLRLSCASSGSIFRYYTMGWYRQAPGKERELVAAISRSGGSTYYADSVKGRFTISRDNAKNTVYLQMNSLKPVDTGVYYCAARYKRAQGYREGDYWGQGTQVTVSS”, the “polyreactivity (PSR sort gate)” value is reported as “high polyreactivity”.

Turning to “QVQRVESWGGLVQAGGSLRLSCAASGSIFDVYTMGWYRQAPGKERELVAAINTGGGSTYYADSVKGRFTISRDNAKNTVYFQMNSLKPEDTAVYYCAAQWWWKRPVRYEYWGQGTLVTVSS”, the “polyreactivity (PSR sort gate)” value was “low polyreactivity”.

On to “QVQSVESGGGLVQAGGSLRLSCAASGRTFSIYGMGWYRQAPGKERELVAAISWRSGSTYYADSVKGRFTISRDNAKNTVYLKMNSLKPEDTAVYYCAKRYILGYKPYSYWGQGTQVTVSS”, for which the “polyreactivity (PSR sort gate)” value was “high polyreactivity”.

Take “QVQVVDSGGGLVQAGGSLRLSCAASGLTIVKNVMGWYRQAPGKERELVAAISRRGGSTYYADSVKGRFTISRDNAKNTVYLQMNSLKPEDTAVYYCNAVLNQLSYIYPAVGYWGQGTQVTVSS”: the “polyreactivity (PSR sort gate)” value was “high polyreactivity”.

As for “QVQVVESGGGFVQAGGSLSLSCAASGSTFPYYVMGCYREAPGKERELVAAISGSGTRTYYADSVKGRFTISRDNAKNTVYLQMNSLKPEDTAVYYCAARKYPQGFDYWGQGTQVTVSS”, the “polyreactivity (PSR sort gate)” value is recorded as “low polyreactivity”.

Regarding “QVQVVESGGGLVKAGGSLRLSCAASGGTFGNYAMGWYRQAPRKERELVAAINRSDGGTYYADSVKGRFTISRDNAKNTVYLQMNSLKPEDTAVYYCNAVDFYYDEPYDYWGQGTQVTVSS”, the “polyreactivity (PSR sort gate)” value is on record as “low polyreactivity”.

Take “QVQVVESGGGLVQAGGSLGLSCAASGSIFGTNAMGWSRQAPGKERELVAAISSSGTSTYYADSVKGRFTISRDKAKNTDYLQMNSLKPEDTAVYYCAAATNWGGEYWGQGTQVTVSS”: the “polyreactivity (PSR sort gate)” value is “high polyreactivity”.

Regarding “QVQVVESGGGLVQAGGSLRLSCAASGFIFPYYAMGWYRQAPGKEWELVAAISWSGSNTYYADSVKGRFTISRDNAKNTDYLQMNSLKPEATAVYYCAARYSVYYFVQRNGRYDDWGQGTQVTVSS”, the “polyreactivity (PSR sort gate)” value is listed as “high polyreactivity”.

For the sequence “QVQVVESGGGLVQAGGSLRLSCAASGFTFILYAMGWYRQAPGKERELVAAISWSGGRTYYADSVKGRFTISRDNAKNTVYLQMNSLKPEDTAVYYCNAPYWTSKSRFDYWGQGTQVTVSS”, the “polyreactivity (PSR sort gate)” value is on record as “low polyreactivity”.

In the case of “QVQVVESGGGLVQAGGSLRLSCAASGGTFGRYTMGWYRQAPGKERELVAAITYGGGSTYYADSVKGRFTISRDNAKNTVYLQMNSLKPEETAVYYCARRGILRGSRYDYWGQGTQVTVSS”, the “polyreactivity (PSR sort gate)” value is listed as “high polyreactivity”.

In the case of “QVQVVESGGGLVQAGGSLRLSCAASGRIFGVNAMGWYRQAPGKERELVAVISSGGSTYYADSVKGRFTISRDNAKKTVYLQMNSLKPEDTAVYYCNAVVGRWFPYNLSDYWGQGTQVTVSS”, the “polyreactivity (PSR sort gate)” value was “low polyreactivity”.

Consider “QVQVVESGGGLVQAGGSLRLSCAASGRTFVSYAMGWYRQATGKERELVAAISSSGGRTYYADSVKGRFTISRDNAMNTVYLQMNSLKPEDTAVYYCYAVRFISARYDYWGQGTQVTVSS”, for which the “polyreactivity (PSR sort gate)” value was “high polyreactivity”.

As for “QVQVVESGGGLVQAGGSLRLSCAASGSIFAYYAMGWYRQAPGKERELVAVISSDGSTYYADSVKGRFTISRDNAKNTVYLQMNSLKPEDTAVYYCAAYPGKYSRYNYWGQGTQVTVSS”, the “polyreactivity (PSR sort gate)” value is listed as “high polyreactivity”.

For “QVQVVESGGGLVQAGGSLRLSCAASGSTFGHNAMGWYRQAPGKERELVAAIDSGDGTTYADSVKGRFTISRDNAKNTVYLQMNSLKPEDTAVYYCNADGLGGADPEYLWYPVPDYDYWGQGTQVTVSS”, the “polyreactivity (PSR sort gate)” value is listed as “low polyreactivity”.

Consider “QVQVVESGGGLVQAGGSLRLSCAASGSTFVIYAMGWYRQAPGKEMELVAGITYSGGRTYYADSVKGRFTISRDNAKNTVYLHMNSLKPEDTAVYYCNARSTWPSGRYAHYRRYYYWGQGTQVTVSS”, for which the “polyreactivity (PSR sort gate)” value is reported as “high polyreactivity”.

Regarding “QVQVVESGGGLVQAGGSLRLSCAPSGRIFQLYAMGRYRQAPRKERELVAVISSGDRTYYADSVKGRFTISRDNAKNTVYLQMNSLKPEDTAVYYCAALGWQSGGSRWHGEYDYWGQGTQVTVSS”, the “polyreactivity (PSR sort gate)” value is “low polyreactivity”.

As for “QVQVVESGGGLVQAGGSLSLSCAASGGIFHSNAMGWYRQAPGKERELVAAISWNTGSTYYADSVKGRFTISRDNAKQTVYLQMNSLKPEDTAVYYCAASYRSPWLRYDYWGQGTQVTVSS”, the “polyreactivity (PSR sort gate)” value is recorded as “high polyreactivity”.

As to “QVQVVESGGGLVQAGGSLSLSCAASGSTVGKYAMGWYRPAPGKERELVASITWSGASTFYADSVKGRFTISRDTAKTTVYLQLNSLKPEDTAVYYCAARSYKSYYIFDYWGQGTQVTVSS”, the “polyreactivity (PSR sort gate)” value is “low polyreactivity”.

In the case of “QVQVVESRGGLVQAGGSLRLSCAASGLIFLGYAMGWYRQAPGKERELVASIRTGGSTSYADSVKGRFTISRDNENNRVYLQMNSLKPEDTAVYYCAADRGRPNLPGDYWGQGSQVTVSS”, the “polyreactivity (PSR sort gate)” value was “low polyreactivity”.

“QVRLVESGGGLVQAGCSLRLSCAASGRTFGRYAIGWYRQAPGTERELVAAITGSGGSTYYADSVKGRFTISRDNAKNTVYLQMNSLKPVDTPVYYCNAGWRLGRGYWGQGTQVTLSS”: the “polyreactivity (PSR sort gate)” value is reported as “high polyreactivity”.

Regarding “QVRLVESGGGLVQAGCSRRLSCAATGRFFAYNSMGWYRQAPGKEMEWVAAISSTGGSTYYADSVKGRFTISRDNAKNTVYLQMNSLKTEDTAVYYCAAAWCYRYSSYDYWGQGTQVTVSS”, the “polyreactivity (PSR sort gate)” value is “low polyreactivity”.

Turning to “QVRLVESGGGLVQAGGRLRLSCAASGRIFSSYSMGWYRQAPGKERELVASISWSGVRTRYADSVKGRFTISRDNAKNTVYLQLNSLKPEDTAVYYCAAVVPYYYRSPSNHMGYWGQGTQVTVSS”, the “polyreactivity (PSR sort gate)” value is “high polyreactivity”.

With “QVRLVESGGGLVQAGGSLRLSCAASGFTFSPYAMGWYRQAPGKERELVAAITSSGGSTYYADSVKGRFTISRDNAKNTVYLQMNSLKPDDTAVSSCAKEIRYSSSVSESDYWGQGTQVSVSS”, the “polyreactivity (PSR sort gate)” value is “high polyreactivity”.

As to “QVRLVESGGGLVQAGGSLRLSCAASGRIFQYYAMGWYRQAPGKERELVASITSGGGSTYYADSVKGRFTISRDNAKNTVYVQMNSLKPEDSAVYYCAVDIYNYSNVHYYYWGQGTQVTVSS”, the “polyreactivity (PSR sort gate)” value is “low polyreactivity”.

On to “QVRLVESGGGLVQAGGSLRLSCAASGSIFDVYAMGCYRQAPGKERELVATISYGDSSTYYADSVKGRFTISRDTAKNTVYLQMNSLKPEDTAVYYCAADYLTAPRWRQWGEMDYWGQGTQVTVSS”, for which the “polyreactivity (PSR sort gate)” value is listed as “low polyreactivity”.

For the sequence “QVRLVETGGGLVQAGGSLRLSCAASGSTFPHYTMGWYIQAHGKERELVAVISRSGRTYYADSVKGRFTISRDNAKNTFYLQMNSLKPEDTAVYYCDVLVGRLVWSYNHWGQVTQVTVSS”, the “polyreactivity (PSR sort gate)” value is “high polyreactivity”.

Turning to “QVWLQESGGGLVQACGSLSLSCAASGTISRDIFMGWYRQAPGKEREFVATIAQGGITNYADSVKGRFTISRDNAKNTVYLQKNSVKPGDTAVYYCEALDGNCYWFYYWGQGTQVTVSS”, the “polyreactivity (PSR sort gate)” value is on record as “high polyreactivity”.

Turning to “QYQLVESGGGLVQAGGSLRLSCAASGSTFRYYAMGWYRQAPGKETELVAAISTRGGTTYYADSVKGRFTISRDNAKNTVYLQMNSLKPEDTAVYYCAAEALVPLIYYYWGQGTQVTVSS”, the “polyreactivity (PSR sort gate)” value is given as “low polyreactivity”.

“REQLQESGGGLVQAGGSLRLSCAASGTIFIRGDMGWYRQSPGKEREFVATIDTGSNTYYADSEKGRFTISRDNAINAVYLQMYCLKPGYTAVYYCVVDYQLSGRLRYWGQGTQVTLSS”: the “polyreactivity (PSR sort gate)” value is recorded as “low polyreactivity”.

For the sequence “RVHLQESGGGLVQAGGSLRLSCAASGTIFIRGDMGWYRQAPGKEREFVATIDTVSNTYYADSEKGRFTISRDNAKNAVYLQMNCLNPGDTAVYYCVVDYQLAGRLRYWGQGTQVTLSS”, the “polyreactivity (PSR sort gate)” value is on record as “low polyreactivity”.

Take “RVQLQESGGGLVQAGGSLRLSCAASGTIFIRGDMGWYRQAPGKEREFVATIDTGSNTYYADSEKGRFTISRDNAKNAVYLQMNCQQPGDTAVYYCVVDYQLSGRLRYWGQGTQVTLSS”: the “polyreactivity (PSR sort gate)” value is given as “low polyreactivity”.
